{"source": "patent US9404925B2", "about": "“Cancer antigen and use thereof” (MEDINET CO., LTD., priority 2002, dated 2016)", "molecules": {"B1": {"name": "hsp105 protein: recombinant hsp105 protein, heat shock protein cancer antigen (SEQ ID NO: 1), used to induce CD4 positive helper T cell lines (protein, listed as Homo sapiens)", "chain": "MSVVGLDVGSQSCYIAVARAGGIETIANEFSDRCTPSVISFGSKNRTIGVAAKNQQITHANNTVSNFKRFHGRAFNDPFIQKEKENLSYDLVPLKNGGVGIKVMYMGEEHLFSVEQITAMLLTKLKETAENSLKKPVTDCVISVPSFFTDAERRSVLDAAQIVGLNCLRLMNDMTAVALNYGIYKQDLPSLDEKPRIVVFVDMGHSAFQVSACAFNKGKLKVLGTAFDPFLGGKNFDEKLVEHFCAEFKTKYKLDAKSKIRALLRLYQECEKLKKLMSSNSTDLPLNIECFMNDKDVSGKMNRSQFEELCAELLQKIEVPLYSLLEQTHLKVEDVSAVEIVGGATRIPAVKERIAKFFGKDISTTLNADEAVARGCALQCAILSPAFKVREFSVTDAVPFPISLIWNHDSEDTEGVHEVFSRNHAAPFSKVLTFLRRGPFELEAFYSDPQGVPYPEAKIGRFVVQNVSAQKDGEKSRVKVKVRVNTHGIFTISTASMVEKVPTEENEMSSEADMECLNQRPPENPDTDKNVQQDNSEAGTQPQVQTDAQQTSQSPPSPELTSEENKIPDADKANEKKVDQPPEAKKPKIKVVNVELPIEANLVWQLGKDLLNMYIETEGKMIMQDKLEKERNDAKNAVEEYVYEFRDKLCGPYEKFICEQDHQNFLRLLTETEDWLYEEGEDQAKQAYVDKLEELMKIGTPVKVRFQEAEERPKMFEELGQRLQHYAKIAADFRNKDEKYNHIDESEMKKVEKSVNEVMEWMNNVMNAQAKKSLDQDPVVRAQEIKTKIKELNNTCEPVVTQPKPKIESPKLERTPNGPNIDKKEEDLEDKNNFGAEPPHQNGECYPNEKNSVNMDLD"}}, "key": {"Colon-26": {"system": "Colon-26", "test": "In vivo antitumor activity of mouse Th induced by hsp105, local injection into Colon-26 tumor", "design": "species or system BALB/c mouse", "details": "tumor with a size of 3 mm, FIG. 6D", "protocol": "(§1) The spleen of a BALB/c mouse was collected and ground to separate spleen cells. 200,000 spleen cells per well on a 96-well flat plate were cultured in 200 μl of a culture solution containing IL-2 (100 IU/ml) and a 2 μg/ml recombinant hsp105 protein for 1 week. Thereafter, every week, the culture product was repeatedly stimulated with 200,000 spleen cells, which had been pulsed with a 2 μg/ml recombinant hsp105 protein and then exposed to radioactive rays, so as to establish multiple CD4 positive helper T cell lines (Th). The expression of CD4 and CD8 on the surface of cells was confirmed by performing immunofluorescent staining with Monoclonal Antibody MOUSE CD4-FITC, CD8-FITC (IMMUNOTECH, Marseille, France), and then analyzed with FACS (FIG. 6A). It was examined by the intake of [^3H] thymidine, whether or not Th specifically reacts with the hsp105 protein and grows. Specifically, 150,000 spleen cells were placed in each well of a 96-well flat plate, and several wells were pulsed with the hsp105 protein overnight, and the other wells were not pulsed therewith. […] Thereafter, the intake of [^3H] thymidine was measured with a liquid scintillation counter. […] Thus, IFN-γ and IL-4 secreted from Th as a result of the reaction were measured with Mouse IFN-γ, IL-4 ELISA Ready-SET-Go! […]"}, "[1]": {"system": "CD4 positive helper T cell lines (Th)", "test": "[3H] thymidine intake of CD4 positive helper T cell line of colon cancer patient induced by hsp105", "type": "cell-based, human", "details": "FIG. 7A", "protocol": "as §1, with “6A).” for “6A). It was examined by the intake of [^3H] thymidine, whether or not Th specifically reacts with the hsp105 protein and grows. Specifically, 150,000 spleen cells were placed in each well of a 96-well flat plate, and several wells were pulsed with the hsp105 protein overnight, and the other wells were not pulsed therewith.”\n(§2) Monocytes were separated from the peripheral blood. […] The expression of CD4 and CD8 on the surface of cells was confirmed by performing immunofluorescent staining using Pharmingen anti-human CD4, CD8-FITC, and then analyzed with FACS. […] In addition, in the same manner as in Example 7, IFN-γ and IL-4 secreted from Th as a result of the reaction were measured using Human IFN-γ, IL-4 US ELISA Kit (BIOSOURCE, Camarillo, Calif.). […]"}, "[2]": {"system": "CD4 positive helper T cell lines (Th)", "test": "IFN-γ and IL-4 ELISA of colon cancer patient Th induced by hsp105", "type": "cell-based, human", "details": "FIG. 7B", "protocol": "as §1, with “6A).” for “6A). It was examined by the intake of [^3H] thymidine, whether or not Th specifically reacts with the hsp105 protein and grows. Specifically, 150,000 spleen cells were placed in each well of a 96-well flat plate, and several wells were pulsed with the hsp105 protein overnight, and the other wells were not pulsed therewith.”\nas §2"}, "[3]": {"system": "CD4 positive helper T cell lines (Th)", "test": "[3H] thymidine intake of mouse CD4 positive helper T cell line induced by hsp105", "type": "cell-based, BALB/c mouse", "details": "spleen cells pulsed with hsp105 protein, 72 hours, FIG. 6B", "protocol": "as §1"}, "[4]": {"system": "CD4 positive helper T cell lines (Th)", "test": "IFN-γ and IL-4 ELISA of mouse Th induced by hsp105", "type": "cell-based, BALB/c mouse", "details": "supernatant 24 hours after addition of Th, FIG. 6C", "protocol": "as §1"}}, "data": [{"molecule": "B1", "values": [{"measurement": "growth of Colon-26 tumor after local injection of Th", "setting": "Colon-26", "value": "clearly retarded"}, {"measurement": "hsp105 protein-specific growth of Th ([3H] thymidine intake)", "setting": "[1]", "value": "specifically reacted with the hsp105 protein and grew"}, {"measurement": "IFN-γ and IL-4 secreted from Th", "setting": "[2]", "value": "generates a large amount of IFN-γ"}, {"measurement": "hsp105 protein-specific growth of Th ([3H] thymidine intake)", "setting": "[3]", "value": "specifically reacted with the hsp105 protein and grew"}, {"measurement": "IFN-γ and IL-4 secreted from Th", "setting": "[4]", "value": "generates a large amount of IFN-γ"}]}]}
